# T1: Synthetic peptide substrate SEISY-EVEFRWKK
# T1 chain: SEISYEVEFRWKK
# T2: Synthetic peptide substrate GLTNIKTEEISEISY-EVEFRWKK
# T2 chain: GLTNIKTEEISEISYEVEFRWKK
# T3: Peptide substrate EIDL-MVLDWHDR
# T3 chain: EIDLMVLDWHDR
# B1: CHO-BACE, recombinant human BACE construct Asp2-2LΔTM-His6 expressed in CHO cells (protein)
# chain: TQHGIRLPLRSGLGGAPLGLRLPRETDEEPEEPGRRGSFVEMVDNLRGKSGQGYYVEMTVGSPPQTLNILVDTGSSNFAVGAAPHPFLHRYYQRQLSSTYRDLRKGVYVPYTQGKWEGELGTDLVSIPHGPNVTVRANIAAITESDKFFINGSNWEGILGLAYAEIARPDDSLEPFFDSLVKQTHVPNLFSLQLCGAGFPLNQSEVLASVGGSMIIGGIDHSLYTGSLWYTPIRREWYYEVIIVRVEINGQDLKMDCKEYNYDKSIVDSGTTNLRLPKKVFEAAVKSIKAASSTEKFPDGFWLGEQLVCWQAGTTPWNIFPVISLYLMGEVTNQSFRITILPQQYLRPVEDVATSQDDCYKFAISQSSTGTVMGAVIMEGFYVVFDRARKRIGFAVSACHVHDEFRTAAVEGPFVTLDMEDCGYNIPQTDESHHHHHH
# B2: pQE70-BACE (M)R36GSFVE...QTDES432RS(His)6 (protein)
# chain: MRGSFVEMVDNLRGKSGQGYYVEMTVGSPPQTLNILVDTGSSNFAVGAAPHPFLHRYYQRQLSSTYRDLRKGVYVPYTQGKWEGELGTDLVSIPHGPNVTVRANIAAITESDKFFINGSNWEGILGLAYAEIARPDDSLEPFFDSLVKQTHVPNLFSLQLCGAGFPLNQSEVLASVGGSMIIGGIDHSLYTGSLWYTPIRREWYYEVIIVRVEINGQDLKMDCKEYNYDKSIVDSGTTNLRLPKKVFEAAVKSIKAASSTEKFPDGFWLGEQLVCWQAGTTPWNIFPVISLYLMGEVTNQSFRITILPQQYLRPVEDVATSQDDCYKFAISQSSTGTVMGAVIMEGFYVVFDRARKRIGFAVSACHVHDEFRTAAVEGPFVTLDMEDCGYNIPQTDESRSHHHHHH
# Assays:
# [1] = molecular target: T1, Synthetic peptide substrate …
# [2] = molecular target: T2, Synthetic peptide substrate …
# [3] = molecular target: T3, Peptide substrate EIDL-MVLDWHDR
Protein,Km [1],Vmax (µmol min^-1mg^-1) [1],kcat [1],kcat/Km [1],Km [2],Vmax (µmol min^-1mg^-1) [2],kcat [2],kcat/Km [2],Km [3],Vmax (µmol min^-1mg^-1) [3],kcat [3],kcat/Km [3]
B1,52 µM,0.294,0.233 s⁻¹,0.0045 sec^-1µM^-1,4.9 µM,0.435,0.345 s⁻¹,0.0704 sec^-1µM^-1,12 µM,0.0196,0.0155 s⁻¹,0.0013 sec^-1µM^-1
B2,55.5 µM,0.345,0.273 s⁻¹,0.0049 sec^-1µM^-1,5.4 µM,0.4,0.317 s⁻¹,0.0581 sec^-1µM^-1,–,–,–,–

# From patent US7186539
